Measured values as given in IntAct's records for PubMed 7851759.

B1: Serine/threonine-protein kinase STE11 (Saccharomyces cerevisiae), P23561 (parent)
chain: MEQTQTAEGTDLLIGDEKTNDLPFVQLFLEEIGCTQYLDSFIQCNLVTEEEIKYLDKDILIALGVNKIGDRLKILRKSKSFQRDKRIEQVNRLKNLMEKVSSLSTATLSMNSELIPEKHCVIFILNDGSAKKVNVNGCFNADSIKKRLIRRLPHELLATNSNGEVTKMVQDYDVFVLDYTKNVLHLLYDVELVTICHANDRVEKNRLIFVSKDQTPSDKAISTSKKLYLRTLSALSQVGPSSSNLLAQNKGISHNNAEGKLRIDNTEKDRIRQIFNQRPPSEFISTNLAGYFPHTDMKRLQKTMRESFRHSARLSIAQRRPLSAESNNIGDILLKHSNAVDMALLQGLDQTRLSSKLDTTKIPKLAHKRPEDNDAISNQLELLSVESGEEEDHDFFGEDSDIVSLPTKIATPKNWLKGACIGSGSFGSVYLGMNAHTGELMAVKQVEIKNNNIGVPTDNNKQANSDENNEQEEQQEKIEDVGAVSHPKTNQNIHRKMVDALQHEMNLLKELHHENIVTYYGASQEGGNLNIFLEYVPGGSVSSMLNNYGPFEESLITNFTRQILIGVAYLHKKNIIHRDIKGANILIDIKGCVKITDFGISKKLSPLNKKQNKRASLQGSVFWMSPEVVKQTATTAKADIWSTGCVVIEMFTGKHPFPDFSQMQAIFKIGTNTTPEIPSWATSEGKNFLRKAFELDYQYRPSALELLQHPWLDAHII
partner: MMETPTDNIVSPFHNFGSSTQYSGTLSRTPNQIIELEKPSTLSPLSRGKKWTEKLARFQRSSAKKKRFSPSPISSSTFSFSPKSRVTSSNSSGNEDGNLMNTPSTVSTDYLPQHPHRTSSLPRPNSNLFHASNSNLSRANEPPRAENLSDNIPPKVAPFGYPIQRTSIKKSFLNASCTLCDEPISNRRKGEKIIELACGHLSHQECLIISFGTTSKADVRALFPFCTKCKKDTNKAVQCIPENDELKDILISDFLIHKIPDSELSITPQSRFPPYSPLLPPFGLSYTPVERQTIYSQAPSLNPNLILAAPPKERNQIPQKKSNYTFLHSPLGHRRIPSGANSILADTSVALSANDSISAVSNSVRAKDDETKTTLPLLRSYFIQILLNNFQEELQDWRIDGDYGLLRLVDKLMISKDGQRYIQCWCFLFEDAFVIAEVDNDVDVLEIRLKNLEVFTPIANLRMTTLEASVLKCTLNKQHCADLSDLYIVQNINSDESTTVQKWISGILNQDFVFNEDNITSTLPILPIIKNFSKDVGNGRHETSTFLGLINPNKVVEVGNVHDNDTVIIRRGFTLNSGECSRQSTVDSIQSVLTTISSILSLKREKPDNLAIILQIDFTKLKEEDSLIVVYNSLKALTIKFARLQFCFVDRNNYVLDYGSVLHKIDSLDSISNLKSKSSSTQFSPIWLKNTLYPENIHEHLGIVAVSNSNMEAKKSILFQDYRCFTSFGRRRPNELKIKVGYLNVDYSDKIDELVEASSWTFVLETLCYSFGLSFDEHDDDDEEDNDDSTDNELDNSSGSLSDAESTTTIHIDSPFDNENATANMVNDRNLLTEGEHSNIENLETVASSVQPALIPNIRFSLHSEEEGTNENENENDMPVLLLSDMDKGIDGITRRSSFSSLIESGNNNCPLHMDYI
B2: Serine/threonine-protein kinase STE11 (Saccharomyces cerevisiae), P23561 (parent)
chain: B1 chain
B3: Serine/threonine-protein kinase STE11 (Saccharomyces cerevisiae), P23561 (parent)
chain: B1 chain
partner: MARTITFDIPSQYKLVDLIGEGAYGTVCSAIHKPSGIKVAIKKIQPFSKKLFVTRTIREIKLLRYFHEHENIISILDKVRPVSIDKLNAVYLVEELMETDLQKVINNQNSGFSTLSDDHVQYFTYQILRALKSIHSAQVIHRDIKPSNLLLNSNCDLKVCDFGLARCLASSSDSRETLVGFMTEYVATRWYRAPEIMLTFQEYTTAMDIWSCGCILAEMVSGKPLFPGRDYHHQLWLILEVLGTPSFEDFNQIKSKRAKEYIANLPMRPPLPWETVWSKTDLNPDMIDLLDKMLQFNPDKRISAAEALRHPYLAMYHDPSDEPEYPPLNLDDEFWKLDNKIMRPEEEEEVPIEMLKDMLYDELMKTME

Variants of: B1
Conditions: with ste5_yeast STE5, P32917

Row | effect of a mutation on the interaction | Variant
1 | increasing interaction | P279S

Variants of: B2
Conditions: with fus3_yeast FUS3, P16892
Sequence of fus3_yeast FUS3, P16892 (P16892 whole entry): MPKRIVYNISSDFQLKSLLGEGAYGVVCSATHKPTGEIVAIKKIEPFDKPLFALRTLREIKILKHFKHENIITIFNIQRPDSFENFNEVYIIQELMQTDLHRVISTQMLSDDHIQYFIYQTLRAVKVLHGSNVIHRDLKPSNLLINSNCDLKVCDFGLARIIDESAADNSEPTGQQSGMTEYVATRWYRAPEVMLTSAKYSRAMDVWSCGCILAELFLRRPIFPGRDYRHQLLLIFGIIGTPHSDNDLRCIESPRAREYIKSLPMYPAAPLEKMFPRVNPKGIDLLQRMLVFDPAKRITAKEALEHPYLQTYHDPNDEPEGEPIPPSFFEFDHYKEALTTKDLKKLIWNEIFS

Row | effect of a mutation on the interaction | Variant
2 | decreasing interaction | P279S

Variants of: B3
Conditions: with kss1_yeast KSS1, P14681

Row | effect of a mutation on the interaction | Variant
3 | decreasing interaction | P279S
